According to article PMC2889767:

T1: Rfx3 (in vitro translated) (UniProt P48381 1-749)
T1 sequence: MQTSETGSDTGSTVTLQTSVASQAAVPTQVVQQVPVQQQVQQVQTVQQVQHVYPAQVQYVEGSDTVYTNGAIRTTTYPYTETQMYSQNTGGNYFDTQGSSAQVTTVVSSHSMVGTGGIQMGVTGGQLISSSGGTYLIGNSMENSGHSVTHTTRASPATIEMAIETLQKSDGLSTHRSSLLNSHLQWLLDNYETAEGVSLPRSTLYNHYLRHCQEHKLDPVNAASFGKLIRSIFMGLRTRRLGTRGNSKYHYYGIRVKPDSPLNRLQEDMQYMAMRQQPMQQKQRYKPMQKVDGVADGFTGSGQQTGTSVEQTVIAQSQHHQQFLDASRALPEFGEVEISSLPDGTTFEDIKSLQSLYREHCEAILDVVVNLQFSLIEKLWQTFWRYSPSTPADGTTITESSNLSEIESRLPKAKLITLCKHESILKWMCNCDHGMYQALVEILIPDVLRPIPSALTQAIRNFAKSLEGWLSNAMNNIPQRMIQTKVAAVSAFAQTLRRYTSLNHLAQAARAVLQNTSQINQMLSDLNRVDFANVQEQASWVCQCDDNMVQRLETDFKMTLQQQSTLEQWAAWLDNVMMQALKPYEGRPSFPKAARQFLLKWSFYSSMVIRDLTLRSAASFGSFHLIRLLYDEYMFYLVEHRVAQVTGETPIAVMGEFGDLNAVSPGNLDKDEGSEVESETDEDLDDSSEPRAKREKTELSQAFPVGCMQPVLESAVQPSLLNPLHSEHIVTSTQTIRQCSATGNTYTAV

B1: Pal-1 wild type (dsDNA)
DNA 1: GGGAGTGGTCACCATGGTGACAGGAG
DNA 2: GGCTCCTGTCACCATGGTGACCACTC
B2: Pal-2 wild type (dsDNA)
DNA 1: GGCAATGGTCACCATAGAAACCACAG
DNA 2: GGCTGTGGTTTCTATGGTGACCATTG

Biological target: T1, Rfx3 (in vitro translated)
Experiment: EMSA

Binder	binding result
B1	binds
B2	binds
